This is an account of results in the DeepSol protein solubility set.

The nature of the data set: soluble on expression in E. coli; label from the status in PepcDB or PDB records.
On to “SGIIKMAIRFDRRAYPPQITPKMCLLEWCRREKLPQPVYETVQRTIDRMFCSVVTVAEQKYQSTLWDKSKKLAEQTAAIVCLRSQGLPEGRLGEESPSLNKRKREAPDQDPGGPR”, for which the “soluble on expression in E. coli” value is “soluble”.

With “SGTNDAEDCCLSVTQKPIPGYIVRNFHYLLIKDGCRVPAVVFTTLRGRQLCAPPDQPWVERIIQRLQRTSAKMKRRSS”, the “soluble on expression in E. coli” value was “soluble”.

Consider “SHPNQNDKIVVGLDIGTTKICAIVGRKNEYGKLEILGIGKAVSEGVIRGMVTNINLTVTAIEKAIKEASDQSGIDIGVVNVGIAGQHIKSSVHHHGINRPGGDEEISVDDVNRLTADMYRTVMPFGN”, for which the “soluble on expression in E. coli” value is listed as “not soluble”.

In the case of “SIPYQEWHSQLQSLYDSQIFHNWALCQDVHLNDEKDGLLLRLIPTRQLQKNTERIENKLLNHIELYLTYSKVYNEPLLLLRIWEEKSIDGIPMTKLMLPTDIESLLDVQGKFQLGLDTIINLEGSVWYSFHPCDTSCIVGDQAEFMSTYLRRWVSIFIFSWLGYEDS”, the “soluble on expression in E. coli” value is on record as “soluble”.

Consider “SISPAQIAEALQGRGWDAEIVTDASMAGQLVDVRPEGILKCVDGRGSDNTRMGGPKMPGGIYAIAHNRGVTSIEGLKQITKEVASKGHLPSVHGDHSSDMLGCGFFKLWVTGRFDDMGYPRPQFDADQGANAVKDAGGIIEMHHGSHTEKVVYINLLANKTLEPNENDQRFIVDGWAADKFGLDVPKFLIAAAATVEMLGGPKNAKIVVP”, for which the “soluble on expression in E. coli” value was “soluble”.

As to “SKELKEIKSELLNYTDDTLPAMERVDAIRDDLSHWRRSQFATYTYKDADKIRNKIASNIREREKISKELEAYGSTIWPGEEQQTFQRLMRQWKQYLVTMDQYNESMLAGNKTEALAVLSNSLNDFEAVDSDLNELIRLLKVAMDSNKNHILSSVN”, the “soluble on expression in E. coli” value is given as “not soluble”.

In the case of “SKFDKLNKAYEQIKSDYYQKTDDDKLVDGAIKGMIQSLDDPYSTYMDQEQAKSFDETISASFEGIGAQVEEKDGEILIVSPIKGSPAEKAGIKPRDQIIKVNGKSVKGMNVNEAVALIRGKKGTKVKLELNRAGVGNIDLSIKRDTIPVETVYSEMKDNNIGEIQITSFSETTAKELTDAIDSLEKKGAKGYILDLRGNPGGLMEQAITMSNLFIDKGKNIMQVEYKNGSKEVMKAEKERKVTKPTVVLVNDGTASAAEIMAAALHESSNVPLIGETTFGKGTVQTAKEYDDGSTVKLTVAKWLTADGEWIHKKGIKPQVKAELPDYAKLPYLDADKTYKSGDTGTNVKVAQKMLKALGYKVKVNSMYDQDFVSVVKQFQKKEKLNETGILTGDTTTKLMIELQKKLSDNDTQMEKAIETLKK”, the “soluble on expression in E. coli” value is “not soluble”.

Regarding “SKIVKIIGREIIDSRGNPTVEAEVHLEGGFVGMAAAPSGASTGSREALELRDGDKSRFLGKGVTKAVAAVNGPIAQALIGKDAKDQAGIDKIMIDLDGTENKSKFGANAILAVSLANAKAAAAAKGMPLYEHIAELNGTPGKYSMPVPMMNIINGGEHADNNVDIQEFMIQPVGAKTVKEAIRMGSEVFHHLAKVLKAKGMNTAVGDEGGYAPNLGSNAEALAVIAEAVKAAGYELGKDITLAMDCAASEFYKDGKYVLAGEGNKAFTSEEFTHFLEELTKQYPIVSIEDGLDESDWDGFAYQTKVLGDKIQLVGDDLFVTNTKILKEGIEKGIANSILIKFNQIGSLTETLAAIKMAKDAGYTAVISHRSGETEDATIADLAVGTAAGQIKTGSMSRSDRVAKYNQLIRIEEALGEKAPYNGRKEIKGQA”, the “soluble on expression in E. coli” value was “soluble”.

Take “SLALSSPILKEILIEAPSYAPNSFTFDSTNKGFYTSVQDGRVMKYEGPNSGFVDFAYASPYWNKAFCENSTDAEKRPLCGRTYDISYNLQNNQMYIVDCYYHLSVVGSEGGHATQLATSVDGVPFKWLYAVTVDQRTGIVYFTDVSTLYDDRGVQQIMDTSDKTGRLMKYDPSTKETTLLMKELHVPGGAEVSADSSFVLVAEFLSHQIVKYWLEGPKKGTAEVLVKIPNPGNIKRNADGHFWVSSSEELDGNMHGRVDPKGIKFDEFGNILEVIPLPPPFAGEHFEQIQEHDGLLYIGTLFHGSVGILVYDKKGNSFVSSH”: the “soluble on expression in E. coli” value is “soluble”.

Turning to “SLDSIELMAKIHASARWSEAALQILADETRRILKHEAGTRAGEDPEQLHQMRVGIRRLRSALRLFEPALKLPKPARRRSLSPLAAVLGSVRDLDVQMEMLRERYLGALPEGEQQALERLLAHLESLRTQARSAMLRYLDGLDYEQFKSAYTEFLESPKFRRGADESLYHLLPAFLREALSTLWAHPGWEEPDVETMHDLRIAVKRVRYNLEFFLGCYGKAVRSLHGELKRIQEELGIIHDCDVLLGQLHTEPLGPATPWQQPFSRLTALVRNERRNAVRRFRRLKTRLLSEDMRNSLAVWVSWPGTADD”, the “soluble on expression in E. coli” value is “soluble”.

In the case of “SLDTEKDCIKAVAAKDGITVIKVKSSNKLLSWHFMRKLFEIFEFYQEPVDMVATSEVGVSLTIDNDKNLPDIVRALSDIGDVTVDKDMVIICIVGDMEWDNVGFEARIINALKGVPVRMISYGGSNYNVSVLVKAEDKKKALIALSNKLFNSRATKA”, the “soluble on expression in E. coli” value is reported as “soluble”.

With “SLEIRRSDAPRLVDLVRRAQASVNRLATEREALTTRIDSVHGRSVDTALAAMQRRSAKLAGVAAMNPVHGPGLVVTLQDAQRDANGRFPRDASPDDLVVHQQDIEAVLNALWNAGAEAIQMQDQRIIAMSIARCVGNTLLLNGRTYSPPYTIAAIGDAAAMQAALAAAPLVTLYKQYVVRFGLGYCEEVHPDLQIVGYADPVRMHFAQPAGPLDY”, the “soluble on expression in E. coli” value is recorded as “soluble”.

For “SLFPHISPCEVRVLMLLYSSKKKIFMGLIPYDQSGFVSAIRQVITTRKQAVGPGGVNSGPVQIVNNKFLAWSGVMEWQEPRPEPNSRSKRWLPSHVYVNQGEILRTEQWPRKLYMQLIPQQLLTTLVPLFRNSRLVQFHFTKDLETLKSLCRIMDNGFAGCVHFSYKASCEIRVLMLLYSSEKKIFIGLIPHDQGNFVNGIRRVIANQQQVLQRNLEQEQQQRGMGG”, the “soluble on expression in E. coli” value was “soluble”.

Consider “SLGLKAAQKTLFPLRSIDDVVRLFAAELGREEPDLVLLSLVLGFVEHFLAVNRVIPTNVPELTFQPSPAPDPPGGLTYFPVADLSIIAALYARFTAQIRGAVDLSLYPREGGVSSRELVKKVSDVIWNSLSRSYFKDRAHIQSLFSFITGWSPVGTKLDSSGVAFAVVGACQALGLRDVHLALSEDHAWVVFGPNGEQTAEVTWHGKGNEDRRGQTVNAGVAERSWLYLKGSYMRCDRKMEVAFMVCAINPSIDLHTDSLELLQLQQKLLWLLYDLGHLERYPMALGNLADLEELEPTPGRPDPLTLYHKGIASAKTYYRDEHIYPYMYLAGYHCRNRNVREALQAWADTATVIQDYNYCREDEEIYKEFFEVANDVIPNLLKEAASLLEAGEERPGEQSQGTQSQGSALQDPECFAHLLRFYDGICKWEEGSPTPVLHVGWATFLVQSLGRFEGQVRQKVRIVSREAEAAEAEEPWGEEAREGRRRGPRRESKPEEPPPPKKPALDKGLGTGQGAVSGPPRKPPGTVAGTARGPEGGSTAQVPAPAASPPPEGPVLTFQSEKMKGMKELLVATKINSSAIKLQLTAQSQVQMKKQKVSTPSDYTLSFLKRQRKG”, for which the “soluble on expression in E. coli” value is “soluble”.

As for “SLGVYKARRFSQSTKKLGIHDKVLMAAAEEVMQGIWEADLGSGVIKKRLPLQQGKSGGARTIIFFKSANHVFFYDGWSKSGLSSKGSKEIEDDELAAYKKMANAFLAFSNKQIEDLIETGFLIEVKNER”, the “soluble on expression in E. coli” value was “not soluble”.

Consider “SLKPFQDKNTFFYKSPSYICDSEISVACKKGKKVDFPNQDDFTIIQTNDWILIMVFDGHGPSGHDISNFVHVVLPLLFSYNIEKIYENPVRTMKTLFYMINCYLVNYSYCINNNINPININFIDYNLSGTTCTIILYNFITKKIYSAHTGDSRAVMGKQNPQTNKFSAYNITEDHKPSLKLEKDRILAFGGEVKKLHGDVAYRVFVKDEMYPGLAMSRAIGDITSSFIGVTCEPTIKILDKLEEDKFIIVATDGIWEFISSEECVQMVSKKKKKKVHIAMEEIIKESWRRWARIDTVDDMTLVILYF”, for which the “soluble on expression in E. coli” value is given as “not soluble”.

“SLKPIMYNEKRGVSVMDIKLQQTQILKPQLTQELKQAITLLGYNSAELAGYIDELSLENPLIERKETDTPPLSYHKTNKNRMKEQDVSQQIRLTRKTLQDSLKQQAIDMKLSDAEKKIFNYLIYSLDSNGYLKEDIQAAADHVSASLEETEAVLAKLQSLEPAGIGARSLQECILLQLRRLPERNEQAEWIAGAYFELFARKNWKALTLQTGIPLKDIQDIFDMISALDPRPGLRYAHEEPGFYVEPDIFNTVKNGIIQARLNSRSFPDIQLHAHYRPMLSAAGCRDVQQVPF”: the “soluble on expression in E. coli” value is listed as “soluble”.

In the case of “SLLPFKENRGLIFLDPPFEVKNEFQKLLEALKKIKLRVLNNTVLIWYPIKDLSLVCDVYHNYKNIGFKETMIIEYELLNSDKNMVKCGLMLINPPNIRGELEKLTEYLSGTLNLKFTYIYL”, the “soluble on expression in E. coli” value is given as “not soluble”.

As to “SLLPQAVTQFEELVGMAEALLKGGGTMSTSASTLWRATNNSSPDSFASTCSNSNSNSSSPVSLKPEEEHQTDEKQFQIEKWQIARCNKSKPQKFINDLMQVLYTNEYMATHSLTGAKSSTSRDKAVKPAMNQNEVQEIIGVTKQLFPNTDDVSIRRMIGQKLNNCTKKPNLSKNLNSQDIK”, the “soluble on expression in E. coli” value is “soluble”.

Take “SLLQLNSPHVHNLFNTPFSAAIMDDVVIGLEVHVQLNRLRTKLFCSCPLNYHQSPPNTHVCPVCLGMPGAMPVINKEAVKAAVKVAMALNAEIQPFTVFDRKNYFYPDLPKGFQISQYDRPLALGGYVTIELDGQEKRIQLKRVHMEEDPGKLSYKGSITTAKYSLIDYNRSGAPLLEIVTEPVMNSPKEARLFLNKLRMILEYLEVFDGDLEGAMRVDANISIRGSGRVEIKNISSFKGVEKALSYEIMRQKNLLQRGRSVVRETRHFDEARNITVSLRSKEEEQDYRYFPEPDLVPVLTEEIVREVEGTLPEMPEEKRERLKRQYGIGDNFAKVLILDVKMADYFEEVAKLVDPKLAASWIVDVLRGELNYRDWSFAKCWEVFKPEEFAKLLKYFEEDRITEKGVVEVIRTKLDEGGEIDAIIQKKGLFAIPKEEIIKFCKEAIEENPKAVEDYLSGKRQALNFLVGQVMKKTRGRADPADTAKLIEEMLS”: the “soluble on expression in E. coli” value is recorded as “soluble”.

On to “SLNAFDELVFAPMYVTSVDGRQAGVFHAHKGRRLIAAHRKAGTTPFVGASRVNNSITGFADTPALFPGGWITLIYNGDGGTGHAKYQPAPFNASDDVIALEPISKQATEPALLLIASMLTLQCVPKFGFGYKLTLHRLDRQKIMIPVLTNADGEQVVNWSGLTRHGKRLLNEAKTRARAVRELTSTAKPKLPELNYMPMFITDVFESMNAAGKWFDFAKACLSGKPFAPYIARSGGGNGVGSFVPHQGFAPPNAGNAITIGVSTSTVFYQPVPFYTSKEIQVLRHHKLTADSGLILVALLREQMGKFQWGNGASLERLKATRIMVPAMVGADGEDVVDWDGLSRYGRALRARVELAINAVL”, for which the “soluble on expression in E. coli” value is on record as “not soluble”.

Take “SLNVVLIVEDEILEQEFLKTMVLGELSPEDKVLTTESGIQAVQLAKQHRPNIIIMDLMIAEVDGLTAIQDIRKFLPNACITILSAYSDFSYAQKAINLKVFEYLLKPVKPSAFKEIFKKMLEIAHEESMISEPIEKTFLPLQEEHQSFIQESVTYIQEHFKEKLTLEMTASRVFMNPKYFSRVFKKEMGISFTEFIIQLRIQYACRLLETTNYPAYRISSECGFSDPSYFNRVFCAQLNMTPQTYRKNSQAQQHEG”: the “soluble on expression in E. coli” value is listed as “soluble”.

For the sequence “SLQSYQSVDSIRAAALATVGPDAEAEATLDPGLRMPGCPIALQAKPTGTNTVEVACPQPAGWRLFVPLKVRRNQDVLVLRRGISAGETISLADISIEKRDAARIVGAVLADPVAAVGKTARRILPAGSLLSANDLVSQRLVRRGDTVPLVSRNGGLEVRMSGRALSDAGENERVSVENSSSRRVVQGIVEASGTVVVSR”, the “soluble on expression in E. coli” value is “soluble”.
